From patent publication US20260055162A1
One block for each substance: values may come before it.

Tests used:
Assay in all cases: cell-based or functional assay
[1] = target: AA-SR-120 (SR-120), Fas ECD-CD28 TM-CD3z ICD
[2] = target: AA-SR-105 (SR-105), Fas ECD-Fas TM-CD3z ICD
[3] = target: AA-SR-115 (SR-115), BTLA ECD-CD28 TM-CD3z ICD
[4] = target: AA-SR-100 (SR-100), BTLA ECD-BTLA TM-CD3z ICD
[5] = target: AA-SR-127 (SR-127), TACTILE ECD-CD28 TM-CD3z ICD
[6] = target: AA-SR-112 (SR-112), TACTILE ECD-TACTILE TM-CD3z ICD
Chain of AA-SR-112 (SR-112), TACTILE ECD-TACTILE TM-CD3z ICD (chain, as listed by the source limits assumed, form in doubt): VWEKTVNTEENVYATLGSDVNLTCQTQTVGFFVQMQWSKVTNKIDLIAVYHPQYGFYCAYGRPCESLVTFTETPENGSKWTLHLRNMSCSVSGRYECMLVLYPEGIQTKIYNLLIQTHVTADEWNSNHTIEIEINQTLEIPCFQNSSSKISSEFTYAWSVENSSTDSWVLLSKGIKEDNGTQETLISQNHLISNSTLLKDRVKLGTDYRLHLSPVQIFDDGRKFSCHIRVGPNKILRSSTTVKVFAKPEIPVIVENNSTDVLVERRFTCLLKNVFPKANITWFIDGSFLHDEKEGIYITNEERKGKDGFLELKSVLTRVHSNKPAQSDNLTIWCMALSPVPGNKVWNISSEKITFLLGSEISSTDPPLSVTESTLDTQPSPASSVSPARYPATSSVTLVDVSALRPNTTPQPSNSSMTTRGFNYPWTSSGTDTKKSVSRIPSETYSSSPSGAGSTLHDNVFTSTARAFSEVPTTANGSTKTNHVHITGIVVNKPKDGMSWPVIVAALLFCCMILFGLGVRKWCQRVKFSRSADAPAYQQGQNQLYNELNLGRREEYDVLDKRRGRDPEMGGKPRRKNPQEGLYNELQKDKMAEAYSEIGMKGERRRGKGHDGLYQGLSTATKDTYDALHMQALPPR

[7] = target: AA-SR-102 (SR-102), CD200R ECD-CD200R TM-CD3z ICD
Chain of AA-SR-102 (SR-102), CD200R ECD-CD200R TM-CD3z ICD (chain, as listed by the source limits assumed, form in doubt): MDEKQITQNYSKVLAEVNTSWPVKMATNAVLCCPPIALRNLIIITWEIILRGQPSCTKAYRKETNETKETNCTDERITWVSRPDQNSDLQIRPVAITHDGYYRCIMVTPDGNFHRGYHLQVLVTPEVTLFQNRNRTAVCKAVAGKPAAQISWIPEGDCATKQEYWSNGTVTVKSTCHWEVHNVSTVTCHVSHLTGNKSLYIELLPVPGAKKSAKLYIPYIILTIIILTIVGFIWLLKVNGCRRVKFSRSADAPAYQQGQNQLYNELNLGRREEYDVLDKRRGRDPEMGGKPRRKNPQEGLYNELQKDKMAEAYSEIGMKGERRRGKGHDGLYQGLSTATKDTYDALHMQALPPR

[8] = target: AA-SR-117 (SR-117), CD200R ECD-CD28 TM-CD3z ICD
Chain of AA-SR-117 (SR-117), CD200R ECD-CD28 TM-CD3z ICD (chain, as listed by the source limits assumed, form in doubt): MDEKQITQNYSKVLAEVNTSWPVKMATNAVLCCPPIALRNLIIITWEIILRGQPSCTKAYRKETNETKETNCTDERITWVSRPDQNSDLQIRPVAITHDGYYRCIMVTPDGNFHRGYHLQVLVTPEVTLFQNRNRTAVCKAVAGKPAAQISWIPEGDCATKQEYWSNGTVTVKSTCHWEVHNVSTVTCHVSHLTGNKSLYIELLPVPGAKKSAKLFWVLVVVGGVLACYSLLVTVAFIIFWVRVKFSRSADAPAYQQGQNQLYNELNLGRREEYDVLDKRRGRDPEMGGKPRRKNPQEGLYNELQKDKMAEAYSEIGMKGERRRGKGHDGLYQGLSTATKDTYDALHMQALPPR

[9] = target: AA-SR-119 (SR-119), CTLA4 ECD-CD28 TM-CD3z ICD
Chain of AA-SR-119 (SR-119), CTLA4 ECD-CD28 TM-CD3z ICD (chain, as listed by the source limits assumed, form in doubt): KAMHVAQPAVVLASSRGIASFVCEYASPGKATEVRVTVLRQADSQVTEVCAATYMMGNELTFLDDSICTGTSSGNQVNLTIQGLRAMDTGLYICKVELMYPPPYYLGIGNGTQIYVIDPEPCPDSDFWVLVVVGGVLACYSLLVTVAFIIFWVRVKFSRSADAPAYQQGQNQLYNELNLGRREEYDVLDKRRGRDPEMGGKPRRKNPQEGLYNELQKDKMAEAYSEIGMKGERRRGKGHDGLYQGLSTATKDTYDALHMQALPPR

[10] = target: AA-SR-104 (SR-104), CTLA4 ECD-CTLA4 TM-CD3z ICD
Chain of AA-SR-104 (SR-104), CTLA4 ECD-CTLA4 TM-CD3z ICD (chain, as listed by the source limits assumed, form in doubt): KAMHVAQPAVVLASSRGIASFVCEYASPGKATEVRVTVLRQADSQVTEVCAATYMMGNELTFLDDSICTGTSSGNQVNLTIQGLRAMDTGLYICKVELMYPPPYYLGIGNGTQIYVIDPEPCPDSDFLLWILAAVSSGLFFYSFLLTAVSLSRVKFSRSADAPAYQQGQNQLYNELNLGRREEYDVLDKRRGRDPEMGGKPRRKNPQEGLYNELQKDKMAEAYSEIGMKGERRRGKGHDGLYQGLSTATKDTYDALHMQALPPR

Chain of AA-SR-100 (SR-100), BTLA ECD-BTLA TM-CD3z ICD (chain, as listed by the source limits assumed, form in doubt): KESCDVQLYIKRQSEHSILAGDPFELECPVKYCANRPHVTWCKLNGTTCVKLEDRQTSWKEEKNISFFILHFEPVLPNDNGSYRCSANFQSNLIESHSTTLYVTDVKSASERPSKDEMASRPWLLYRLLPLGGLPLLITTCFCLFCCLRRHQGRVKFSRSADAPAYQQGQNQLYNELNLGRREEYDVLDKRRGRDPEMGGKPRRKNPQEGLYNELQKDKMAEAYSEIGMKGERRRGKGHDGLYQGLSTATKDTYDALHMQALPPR
Chain of AA-SR-127 (SR-127), TACTILE ECD-CD28 TM-CD3z ICD (chain, as listed by the source limits assumed, form in doubt): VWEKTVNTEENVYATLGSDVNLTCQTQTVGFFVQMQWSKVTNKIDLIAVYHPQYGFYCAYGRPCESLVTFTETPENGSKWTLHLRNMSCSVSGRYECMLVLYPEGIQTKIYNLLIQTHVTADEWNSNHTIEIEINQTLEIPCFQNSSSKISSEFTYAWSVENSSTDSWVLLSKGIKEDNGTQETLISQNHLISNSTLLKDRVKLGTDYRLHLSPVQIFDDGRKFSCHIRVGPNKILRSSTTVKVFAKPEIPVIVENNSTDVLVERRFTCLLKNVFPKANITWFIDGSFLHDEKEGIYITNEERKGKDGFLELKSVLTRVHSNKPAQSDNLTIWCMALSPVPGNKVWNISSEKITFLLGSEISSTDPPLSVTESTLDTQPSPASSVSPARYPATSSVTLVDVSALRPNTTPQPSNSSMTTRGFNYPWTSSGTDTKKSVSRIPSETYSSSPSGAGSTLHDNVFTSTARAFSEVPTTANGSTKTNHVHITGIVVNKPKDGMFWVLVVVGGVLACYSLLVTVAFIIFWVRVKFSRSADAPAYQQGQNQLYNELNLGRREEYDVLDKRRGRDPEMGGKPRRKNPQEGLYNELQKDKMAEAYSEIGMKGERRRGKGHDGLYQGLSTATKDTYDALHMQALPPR
Chain of FasL recombinant protein (P48023 134-281 limits assumed): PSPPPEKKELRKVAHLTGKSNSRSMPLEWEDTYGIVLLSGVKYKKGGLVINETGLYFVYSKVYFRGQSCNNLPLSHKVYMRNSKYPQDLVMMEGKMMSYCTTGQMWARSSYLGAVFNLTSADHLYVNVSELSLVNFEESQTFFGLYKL
Chain of AA-SR-120 (SR-120), Fas ECD-CD28 TM-CD3z ICD (chain, as listed by the source limits assumed, form in doubt): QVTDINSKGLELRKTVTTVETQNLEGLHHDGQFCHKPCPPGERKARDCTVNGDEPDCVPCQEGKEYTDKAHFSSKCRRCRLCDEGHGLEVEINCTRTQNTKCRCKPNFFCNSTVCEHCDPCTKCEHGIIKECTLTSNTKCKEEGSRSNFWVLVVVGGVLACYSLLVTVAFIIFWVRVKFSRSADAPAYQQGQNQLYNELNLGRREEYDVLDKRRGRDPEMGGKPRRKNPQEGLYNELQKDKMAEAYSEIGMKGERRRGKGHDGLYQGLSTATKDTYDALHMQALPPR
Chain of AA-SR-105 (SR-105), Fas ECD-Fas TM-CD3z ICD (chain, as listed by the source limits assumed, form in doubt): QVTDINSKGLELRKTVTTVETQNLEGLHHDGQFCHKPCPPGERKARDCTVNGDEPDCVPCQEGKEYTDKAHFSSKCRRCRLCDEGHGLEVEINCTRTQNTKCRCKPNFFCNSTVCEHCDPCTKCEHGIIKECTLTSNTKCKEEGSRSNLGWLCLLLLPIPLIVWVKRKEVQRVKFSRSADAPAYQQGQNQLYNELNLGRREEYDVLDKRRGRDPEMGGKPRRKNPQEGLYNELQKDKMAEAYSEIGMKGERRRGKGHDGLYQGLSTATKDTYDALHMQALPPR
Chain of AA-SR-115 (SR-115), BTLA ECD-CD28 TM-CD3z ICD (chain, as listed by the source limits assumed, form in doubt): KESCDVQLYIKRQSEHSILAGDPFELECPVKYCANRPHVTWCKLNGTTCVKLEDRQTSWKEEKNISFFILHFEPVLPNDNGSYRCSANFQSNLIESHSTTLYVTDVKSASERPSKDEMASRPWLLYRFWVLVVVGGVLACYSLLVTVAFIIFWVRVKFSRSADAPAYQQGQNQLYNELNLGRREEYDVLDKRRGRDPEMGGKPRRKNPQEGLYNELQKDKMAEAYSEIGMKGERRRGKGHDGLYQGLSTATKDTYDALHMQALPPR

Substance: FasL recombinant protein (from UniProt P48023 134-281) (ligand)
CD69, fold-change of MFI over no stimulation, High (10 ug/mL) [1]: 162 fold
CD69, fold-change of MFI over no stimulation, Low (0.4 ug/mL) [1]: 40.5 fold
CD69, fold-change of MFI over no stimulation, Med. (2 ug/mL) [1]: 129 fold
GFP, fold-change of MFI over no stimulation, High (10 ug/mL) [1]: 10.1 fold
GFP, fold-change of MFI over no stimulation, Low (0.4 ug/mL) [1]: 2.4 fold
GFP, fold-change of MFI over no stimulation, Med. (2 ug/mL) [1]: 11.2 fold
CD69, fold-change of MFI over no stimulation, High (10 ug/mL) [2]: 70.2 fold
CD69, fold-change of MFI over no stimulation, Low (0.4 ug/mL) [2]: 8.4 fold
CD69, fold-change of MFI over no stimulation, Med. (2 ug/mL) [2]: 35.7 fold
GFP, fold-change of MFI over no stimulation, High (10 ug/mL) [2]: 7.3 fold
GFP, fold-change of MFI over no stimulation, Low (0.4 ug/mL) [2]: 1 fold
GFP, fold-change of MFI over no stimulation, Med. (2 ug/mL) [2]: 4.6 fold

Substance: anti-CD200R mAb clone OX-108 (antibody)
CD69, fold-change of MFI over no stimulation, High (10 ug/mL) [7]: 29.2 fold
CD69, fold-change of MFI over no stimulation, Low (0.4 ug/mL) [7]: 1.3 fold
CD69, fold-change of MFI over no stimulation, Med. (2 ug/mL) [7]: 4.9 fold
GFP, fold-change of MFI over no stimulation, High (10 ug/mL) [7]: 6.8 fold
GFP, fold-change of MFI over no stimulation, Low (0.4 ug/mL) [7]: 0.8 fold
GFP, fold-change of MFI over no stimulation, Med. (2 ug/mL) [7]: 1.4 fold
CD69, fold-change of MFI over no stimulation, High (10 ug/mL) [8]: 8.7 fold
CD69, fold-change of MFI over no stimulation, Low (0.4 ug/mL) [8]: 0.9 fold
CD69, fold-change of MFI over no stimulation, Med. (2 ug/mL) [8]: 1.1 fold
GFP, fold-change of MFI over no stimulation, High (10 ug/mL) [8]: 5.9 fold
GFP, fold-change of MFI over no stimulation, Low (0.4 ug/mL) [8]: 1.1 fold
GFP, fold-change of MFI over no stimulation, Med. (2 ug/mL) [8]: 0.9 fold

Substance: anti-CTLA-4 mAb clone 1003705 (antibody)
CD69, fold-change of MFI over no stimulation, High (10 ug/mL) [9]: 6.2 fold
CD69, fold-change of MFI over no stimulation, Low (0.4 ug/mL) [9]: 2.7 fold
CD69, fold-change of MFI over no stimulation, Med. (2 ug/mL) [9]: 4.5 fold
GFP, fold-change of MFI over no stimulation, High (10 ug/mL) [9]: 5.9 fold
GFP, fold-change of MFI over no stimulation, Low (0.4 ug/mL) [9]: 2.6 fold
GFP, fold-change of MFI over no stimulation, Med. (2 ug/mL) [9]: 4.6 fold
CD69, fold-change of MFI over no stimulation, High (10 ug/mL) [10]: 7.2 fold
CD69, fold-change of MFI over no stimulation, Low (0.4 ug/mL) [10]: 3.1 fold
CD69, fold-change of MFI over no stimulation, Med. (2 ug/mL) [10]: 5.6 fold
GFP, fold-change of MFI over no stimulation, High (10 ug/mL) [10]: 4.3 fold
GFP, fold-change of MFI over no stimulation, Low (0.4 ug/mL) [10]: 2.2 fold
GFP, fold-change of MFI over no stimulation, Med. (2 ug/mL) [10]: 3.8 fold

Further lines, results first:

CD69, fold-change of MFI over no stimulation, High (10 ug/mL) [3]: 9.2 fold
CD69, fold-change of MFI over no stimulation, Low (0.4 ug/mL) [3]: 10.8 fold
CD69, fold-change of MFI over no stimulation, Med. (2 ug/mL) [3]: 14.1 fold
GFP, fold-change of MFI over no stimulation, High (10 ug/mL) [3]: 3.5 fold
GFP, fold-change of MFI over no stimulation, Low (0.4 ug/mL) [3]: 5.1 fold
GFP, fold-change of MFI over no stimulation, Med. (2 ug/mL) [3]: 6.9 fold
CD69, fold-change of MFI over no stimulation, High (10 ug/mL) [4]: 125 fold
CD69, fold-change of MFI over no stimulation, Low (0.4 ug/mL) [4]: 62.7 fold
CD69, fold-change of MFI over no stimulation, Med. (2 ug/mL) [4]: 124 fold
GFP, fold-change of MFI over no stimulation, High (10 ug/mL) [4]: 13 fold
GFP, fold-change of MFI over no stimulation, Low (0.4 ug/mL) [4]: 6.1 fold
GFP, fold-change of MFI over no stimulation, Med. (2 ug/mL) [4]: 7.5 fold
Substance: anti-BTLA mAb clone MIH26 (antibody)

CD69, fold-change of MFI over no stimulation, High (10 ug/mL) [5]: 2 fold
CD69, fold-change of MFI over no stimulation, Low (0.4 ug/mL) [5]: 1.1 fold
CD69, fold-change of MFI over no stimulation, Med. (2 ug/mL) [5]: 1.1 fold
GFP, fold-change of MFI over no stimulation, High (10 ug/mL) [5]: 1 fold
GFP, fold-change of MFI over no stimulation, Low (0.4 ug/mL) [5]: 1 fold
GFP, fold-change of MFI over no stimulation, Med. (2 ug/mL) [5]: 0.8 fold
CD69, fold-change of MFI over no stimulation, High (10 ug/mL) [6]: 3.9 fold
CD69, fold-change of MFI over no stimulation, Low (0.4 ug/mL) [6]: 3.3 fold
CD69, fold-change of MFI over no stimulation, Med. (2 ug/mL) [6]: 1 fold
GFP, fold-change of MFI over no stimulation, High (10 ug/mL) [6]: 1.2 fold
GFP, fold-change of MFI over no stimulation, Low (0.4 ug/mL) [6]: 1 fold
GFP, fold-change of MFI over no stimulation, Med. (2 ug/mL) [6]: 0.9 fold
Substance: anti-CD96 mAb clone NK92.39 (antibody)
